Measured values reported in US20220289856A1 (IGM BIOSCIENCES, published 2022).
Residue numbers refer to the chain shown, from its start.

T1: recombinant human CD123 protein (Sino Biological 10518-H08H-50) (human, UniProt P26951 19-305)
T1 construct: also called IL-3 receptor alpha chain; IL-3Rα
T1 sequence (looked up): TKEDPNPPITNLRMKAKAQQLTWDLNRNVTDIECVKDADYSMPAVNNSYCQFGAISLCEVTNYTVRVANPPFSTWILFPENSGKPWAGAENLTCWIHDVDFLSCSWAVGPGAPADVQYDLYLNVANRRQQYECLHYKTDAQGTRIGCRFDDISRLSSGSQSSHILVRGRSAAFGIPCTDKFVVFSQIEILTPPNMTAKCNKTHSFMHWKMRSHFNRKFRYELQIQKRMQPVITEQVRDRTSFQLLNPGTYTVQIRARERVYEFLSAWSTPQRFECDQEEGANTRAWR

B1: anti-CD123×CD3 IgM #1 (bispecific antibody)
heavy: QVQLQQSGAEVKKPGASVKVSCKASGYTFTDYYMKWVKQSHGKSLEWMGDIIPSNGATFYNQKFKGKATLTVDRSTSTAYMELSSLRSEDTAVYYCARSHLLRASWFAYWGQGTLVTVSSGSASAPTLFPLVSCENSPSDTSSVAVGCLAQDFLPDSITFSWKYKNNSDISSTRGFPSVLRGGKYAATSQVLLPSKDVMQGTDEHVVCKVQHPNGNKEKNVPLPVIAELPPKVSVFVPPRDGFFGNPRKSKLICQATGFSPRQIQVSWLREGKQVGSGVTTDQVQAEAKESGPTTYKVTSTLTIKESDWLSQSMFTCRVDHRGLTFQQNASSMCVPDQDTAIRVFAIPPSFASIFLTKSTKLTCLVTDLTTYDSVTISWTRQNGEAVKTHTNISESHPNATFSAVGEASICEDDWNSGERFTCTVTHTDLPSPLKQTISRPKGVALHRPDVYLLPPAREQLNLRESATITCLVTGFSPADVFVQWMQRGQPLSPEKYVTSAPMPEPQAPGRYFAHSILTVSEEEWNTGETYTCVVAHEALPNRVTERTVDKSTGKPTLYNVSLVMSDTAGTCY
light: not shown
chain: not shown
notes: also called Anti-CD123 XCD3 IgM #1
B2: IGM #C-b-J*-H1 (bispecific antibody)
VH: QVQLQQPGAELVRPGASVKLSCKASGYTFTSYWMNWVKQRPDQGLEWIGRIDPYDSETHYNQKFKDKAILTVDKSSSTAYMQLSSLTSEDSAVYYCARGNWDDYWGQGTTLTVSS
VL: DVQITQSPSYLAASPGETITINCRASKSISKDLAWYQEKPGKTNKLLIYSGSTLQSGIPSRFSGSGSGTDFTLTISSLEPEDFAMYYCQQHNKYPYTFGGGTKLEIK
J-chain: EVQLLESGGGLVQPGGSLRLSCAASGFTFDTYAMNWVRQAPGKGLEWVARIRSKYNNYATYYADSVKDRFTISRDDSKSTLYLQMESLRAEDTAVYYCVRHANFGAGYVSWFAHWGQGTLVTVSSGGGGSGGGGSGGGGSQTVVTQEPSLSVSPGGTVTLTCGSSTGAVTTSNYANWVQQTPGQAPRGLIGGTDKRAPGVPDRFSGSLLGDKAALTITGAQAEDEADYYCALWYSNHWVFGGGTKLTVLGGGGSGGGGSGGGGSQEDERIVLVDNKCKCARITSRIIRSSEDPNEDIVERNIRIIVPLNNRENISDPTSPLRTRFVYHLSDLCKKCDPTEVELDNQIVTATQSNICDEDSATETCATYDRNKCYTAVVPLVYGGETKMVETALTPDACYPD
B3: anti-CD123×CD3 IgM #2 (bispecific antibody)
heavy: QVQLVQSGAEVKKPGASVKVSCKASGYTFTSYWMNWVRQAPGQGLEWMGRIDPYDSETHYNQKFKDRVTMTVDKSTSTAYMELSSLRSEDTAVYYCARGNWDDYWGQGTTVTVSSGSASAPTLFPLVSCENSPSDTSSVAVGCLAQDFLPDSITFSWKYKNNSDISSTRGFPSVLRGGKYAATSQVLLPSKDVMQGTDEHVVCKVQHPNGNKEKNVPLPVIAELPPKVSVFVPPRDGFFGNPRKSKLICQATGFSPRQIQVSWLREGKQVGSGVTTDQVQAEAKESGPTTYKVTSTLTIKESDWLSQSMFTCRVDHRGLTFQQNASSMCVPDQDTAIRVFAIPPSFASIFLTKSTKLTCLVTDLTTYDSVTISWTRQNGEAVKTHTNISESHPNATFSAVGEASICEDDWNSGERFTCTVTHTDLPSPLKQTISRPKGVALHRPDVYLLPPAREQLNLRESATITCLVTGFSPADVFVQWMQRGQPLSPEKYVTSAPMPEPQAPGRYFAHSILTVSEEEWNTGETYTCVVAHEALPNRVTERTVDKSTGKPTLYNVSLVMSDTAGTCY
light: EVVLTQSPATLSLSPGERATLSCRASKSISKDLAWYQQKPGQAPRLLIYSGSTLQSGIPARFSGSGSGTDFTLTISSLEPEDFAVYYCQQHNKYPYTFGGGTKVEIKRTVAAPSVFIFPPSDEQLKSGTASVVCLLNNFYPREAKVQWKVDNALQSGNSQESVTEQDSKDSTYSLSSTLTLSKADYEKHKVYACEVTHQGLSSPVTKSFNRGEC
chain: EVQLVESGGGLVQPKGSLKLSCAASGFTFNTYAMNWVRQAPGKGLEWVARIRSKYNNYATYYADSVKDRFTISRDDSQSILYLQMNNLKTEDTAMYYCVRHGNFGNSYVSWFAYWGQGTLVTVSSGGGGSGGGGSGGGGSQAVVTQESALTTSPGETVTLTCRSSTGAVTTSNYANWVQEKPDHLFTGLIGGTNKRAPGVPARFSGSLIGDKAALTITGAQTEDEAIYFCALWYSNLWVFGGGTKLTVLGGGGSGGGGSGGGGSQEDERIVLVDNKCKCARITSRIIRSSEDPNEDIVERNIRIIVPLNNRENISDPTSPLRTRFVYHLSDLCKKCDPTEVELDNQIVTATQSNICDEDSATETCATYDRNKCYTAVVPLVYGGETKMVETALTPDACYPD
B4: anti-CD123 IgG #2 (antibody, V domains shown)
VH: QVQLVQSGAEVKKPGASVKVSCKASGYTFTSYWMNWVRQAPGQGLEWMGRIDPYDSETHYNQKFKDRVTMTVDKSTSTAYMELSSLRSEDTAVYYCARGNWDDYWGQGTTVTVSS
VL: EVVLTQSPATLSLSPGERATLSCRASKSISKDLAWYQQKPGQAPRLLIYSGSTLQSGIPARFSGSGSGTDFTLTISSLEPEDFAVYYCQQHNKYPYTFGGGTKVEIKR
notes: Mono-specific IgG version of anti-CD123 #2; also called mono-specific IgG anti-CD123 construct
B5: IGM #B-b-J*-H1 (bispecific antibody)
VH: QIQLVQSGPELKKPGETVKISCKASGYIFTNYGMNWVKQAPGKSFKWMGWINTYTGESTYSADFKGRFAFSLETSASTAYLHINDLKNEDTATYFCARSGGYDPMDYWGQGTSVTVSS
VL: DIVLTQSPASLAVSLGQRATISCRASESVDNYGNTFMHWYQQKPGQPPKLLIYRASNLESGIPARFSGSGSRTDFTLTINPVEADDVATYYCQQSNEDPPTFGAGTKLELK
J-chain: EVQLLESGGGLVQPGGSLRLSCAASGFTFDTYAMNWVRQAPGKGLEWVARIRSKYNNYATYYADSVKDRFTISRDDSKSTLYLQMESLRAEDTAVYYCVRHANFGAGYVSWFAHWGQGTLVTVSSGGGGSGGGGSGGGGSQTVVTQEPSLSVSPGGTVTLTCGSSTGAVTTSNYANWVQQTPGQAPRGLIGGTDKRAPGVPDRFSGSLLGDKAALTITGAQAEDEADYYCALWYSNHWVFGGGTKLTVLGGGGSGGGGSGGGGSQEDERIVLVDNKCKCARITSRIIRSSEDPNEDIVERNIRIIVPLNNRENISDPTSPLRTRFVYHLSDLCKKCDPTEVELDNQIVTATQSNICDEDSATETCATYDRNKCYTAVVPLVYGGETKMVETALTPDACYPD
B6: IGM #A-b-J*-H1 (bispecific antibody)
chain 1: EVQLVQSGAEVKKPGESLKISCKGSGYSFTDYYMKWARQMPGKGLEWMGDIIPSNGATFYNQKFKGQVTISADKSISTTYLQWSSLKASDTAMYYCARSHLLRASWFAYWGQGTMVTVSS
chain 2: DIVMTQSPDSLAVSLGERATINCESSQSLLNSGNQKNYLTWYQQKPGQPPKPLIYWASTRESGVPDRFSGSGSGTDFTLTISSLQAEDVAVYYCQNDYSYPYTFGQGTKLEIKR
chain 3: not shown
B7: anti-CD123 IgG #1 (antibody, V domains shown)
VH: QVQLQQSGAEVKKPGASVKVSCKASGYTFTDYYMKWVKQSHGKSLEWMGDIIPSNGATFYNQKFKGKATLTVDRSTSTAYMELSSLRSEDTAVYYCARSHLLRASWFAYWGQGTLVTVSS
VL: B6 chain 2 with I2F, E24K, S32T, P52L, S69T, Q106G
notes: Mono-specific IgG version of anti-CD123 #1; also called mono-specific IgG anti-CD123 construct
B8: anti-CD123×CD3 IgG #1 (bispecific antibody)
heavy 1: QVQLQQSGAEVKKPGASVKVSCKASGYTFTDYYMKWVKQSHGKSLEWMGDIIPSNGATFYNQKFKGKATLTVDRSTSTAYMELSSLRSEDTAVYYCARSHLLRASWFAYWGQGTLVTVSSASTKGPSVFPLAPSSKSTSGGTAALGCLVKDYFPEPVTVSWNSGALTSGVHTFPAVLQSSGLYSLSSVVTVPSSSLGTQTYICNVNHKPSDTKVDKKVEPKSCDKTHTCPPCPAPPVAGPSVFLFPPKPKDTLMISRTPEVTCVVVDVKHEDPEVKFNWYVDGVEVHNAKTKPREEEYNSTYRVVSVLTVLHQDWLNGKEYKCKVSNKALPAPIEKTISKAKGQPREPQVYTLPPSREEMTKNQVSLTCDVSGFYPSDIAVEWESDGQPENNYKTTPPVLDSDGSFFLYSKLTVDKSRWEQGDVFSCSVMHEALHNHYTQKSLSLSPGK
light: not shown
heavy 2: not shown
notes: Construct described in WO 2017/210443 A1, made by commercial vendors; also called bispecific anti-CD123×CD3 IgG #1; anti-CD123×anti-CD3 BiTE construct
B9: IGM #F-b-J*-H1 (bispecific antibody)
VH: QVQLQESGPGLVKPSQSLSLTCSVTDYSITSGYYWNWIRQFPGNKLEWMGYISYDGSNNYNPSLKNRISITRDTSKNQFFLKLSSVTTEDTATYYCSRGEGFYFDSWGQGTTLTVSS
VL: DIMMSQSPSSLAVSVGEKFTMTCKSSQSLFFGSTQKNYLAWYQQKPGQSPKLLIYWASTRESGVPDRFTGSGSGTDFTLAISSVMPEDLAVYYCQQYYNYPWTFGGGTKLEIK
J-chain: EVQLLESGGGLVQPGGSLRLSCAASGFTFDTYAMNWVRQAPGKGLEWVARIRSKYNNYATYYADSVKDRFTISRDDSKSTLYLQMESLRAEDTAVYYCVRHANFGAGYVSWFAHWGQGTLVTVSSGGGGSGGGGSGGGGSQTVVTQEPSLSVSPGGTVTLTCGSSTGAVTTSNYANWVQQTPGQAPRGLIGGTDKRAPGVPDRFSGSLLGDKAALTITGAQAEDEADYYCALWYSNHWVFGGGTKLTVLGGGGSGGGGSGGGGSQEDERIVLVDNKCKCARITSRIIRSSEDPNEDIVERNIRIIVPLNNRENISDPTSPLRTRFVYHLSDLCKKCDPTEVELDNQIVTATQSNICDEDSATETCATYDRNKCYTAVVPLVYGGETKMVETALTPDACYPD
notes: IgM pentamer with a modified J-chain

What was measured:
[1] = target: recombinant human CD3ε protein (Acro Biosystems, CDE-H5256-100) (human, UniProt P07766 23-126); experiment: ELISA on plate-coated recombinant human CD3ε
Sequence of recombinant human CD3ε protein (Acro Biosystems, CDE-H5256-100) (P07766 23-126 limits assumed): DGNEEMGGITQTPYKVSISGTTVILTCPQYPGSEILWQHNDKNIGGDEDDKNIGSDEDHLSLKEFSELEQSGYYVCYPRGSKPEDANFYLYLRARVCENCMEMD
Method: (§1) 96-well white polystyrene ELISA plates (Pierce 15042) were coated with 100 μL per well of 0.5 μg/mL recombinant human CD123 protein (Sino Biological 10518-H08H-50) or recombinant human CD3ε protein (Acro Biosystems, CDE-H5256-100) overnight at 4° C. Plates were then washed 5 times with 0.05% PBS-Tween and blocked with 2% BSA-PBS. After blocking, 100 μL of serial dilutions of CD123 IgM or IgG, standards, and controls were added to the wells and incubated at room temperature for 2 hours. The plates were then washed 10 times and incubated with HRP conjugated mouse anti-human kappa (Southern Biotech, 9230-05. 1:6000 diluted in 2% BSA-PBS) for 30 min. After 10 final washes using 0.05% PBS-Tween, the plates were read out using SuperSignal chemiluminescent substrate (ThermoFisher, 37070). Luminescent data were collected on an EnVision plate reader (Perkin-Elmer) and analyzed with GraphPad Prism using a 4-parameter logistic model.

[2] = target: T2, CD123 on AML cells (Kg-1a, MOLM-13, MV4-11, THP-1, PL21) (UniProt P26951 19-378); experiment: cell-based or functional assay
[3] = target: T1, recombinant human CD123 protein (Sino …); experiment: ELISA on plate-coated recombinant human CD123, as in Example 2
Method: as §1

[4] = target: T2, CD123 on AML cells (Kg-1a, MOLM-13, …); experiment: cell-based or functional assay; remark: listed apart in the source
[5] = target: T1, recombinant human CD123 protein (Sino …); experiment: ELISA on plate-coated recombinant human CD123
Method: as §1

Binder | binding result [1] | EC50 [3] | T Cell-Directed Killing EC50 (pM), MV411, Strong Donor T cells [4] | T Cell-Directed Killing EC50 (pM), MV411, Weak Donor T cells [4] | T Cell-Directed Killing EC50 (pM), PL21, Strong Donor T cells [4] | T Cell-Directed Killing EC50 (pM), THP-1, Strong Donor T cells [4] | binding result [5] | further results
B1 | binds | – | – | – | – | – | – | T cell-directed killing of MV4-11 cells (luciferase), EC50 [2]: 0.0136 nM; T cell-directed killing of THP-1 cells (luciferase), EC50 [2]: 0.0111 nM
B2 | – | 0.354 nM | 0.1 pM | 528 pM | 147 pM | 104 pM | – | T Cell-Directed Killing EC50 (pM), THP-1, Weak Donor T cells [4]: 990 pM
B3 | binds | – | – | – | – | – | binds | –
B4 | no binding | – | – | – | – | – | binds | –
B5 | – | 0.298 nM | 41.2 pM | 35.3 pM | 4.9 pM | 12.9 pM | – | T Cell-Directed Killing EC50 (pM), PL21, Weak Donor T cells [4]: 227 pM; T Cell-Directed Killing EC50 (pM), THP-1, Weak Donor T cells [4]: 46.2 pM
B6 | – | 0.198 nM | – | – | – | – | – | –
B7 | no binding | – | – | – | – | – | binds | –
B8 | binds | – | – | – | – | – | – | –
B9 | – | 0.53 nM | 273 pM | 1080 pM | 102 pM | 66.3 pM | – | –
